Assay results reported in patent US20250243243A1, “DISRUPTION OF SONIC HEDGEHOG-SURF4 INTERACTION FOR CANCER TREATMENT” (The Hong Kong University of Science and Technology, priority 2022, published 2025).

Legend:
ShhN^1-198-HA (mouse) [1] = molecular target: ShhN^1-198-HA (mouse) (UniProt Q62226); assay: anti-HA immunoprecipitation from HEK293T lysate, label-free quantitative mass spectrometry; ratio of the ShhN-HA group to the IGF2-HA group
IGF2-HA (human) = IGF2-HA (human) (UniProt P01344); assay: anti-HA immunoprecipitation from HEK293T lysate, label-free quantitative mass spectrometry; 2 unique peptides; untransfected Control Group printed 247624.8556
ShhN^1-198-HA (mouse) [2] = molecular target: ShhN^1-198-HA (mouse) (UniProt Q62226); assay: as above

ShhN^1-198-HA (mouse), sequence (Q62226 25-198): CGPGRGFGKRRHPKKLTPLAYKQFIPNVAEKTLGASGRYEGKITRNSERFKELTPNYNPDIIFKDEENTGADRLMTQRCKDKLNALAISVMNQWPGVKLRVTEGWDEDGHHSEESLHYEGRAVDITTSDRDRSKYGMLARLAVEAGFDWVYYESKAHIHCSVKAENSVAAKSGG

Abundance Ratio ShhN:IGF2 (ShhN^1-198-HA (mouse) [1]): 3.5 | abundance in The IGF2 Group (IGF2-HA (human)): 78500 | abundance in The ShhN Group (ShhN^1-198-HA (mouse) [2]): 275000
B1: CLINT1 (protein, human (HEK293T cells), UniProt Q14677 1-625, looked up)
single chain: MLNMWKVRELVDKATNVVMNYSEIESKVREATNDDPWGPSGQLMGEIAKATFMYEQFPELMNMLWSRMLKDNKKNWRRVYKSLLLLAYLIRNGSERVVTSAREHIYDLRSLENYHFVDEHGKDQGINIRQKVKELVEFAQDDDRLREERKKAKKNKDKYVGVSSDSVGGFRYSERYDPEPKSKWDEEWDKNKSAFPFSDKLGELSDKIGSTIDDTISKFRRKDREDSPERCSDSDEEKKARRGRSPKGEFKDEEETVTTKHIHITQATETTTTRHKRTANPSKTIDLGAAAHYTGDKASPDQNASTHTPQSSVKTSVPSSKSSGDLVDLFDGTSQSTGGSADLFGGFADFGSAAASGSFPSQVTATSGNGDFGDWSAFNQAPSGPVASSGEFFGSASQPAVELVSGSQSALGPPPAASNSSDLFDLMGSSQATMTSSQSMNFSMMSTNTVGLGLPMSRSQNTDMVQKSVSKTLPSTWSDPSVNISLDNLLPGMQPSKPQQPSLNTMIQQQNMQQPMNVMTQSFGAVNLSSPSNMLPVRPQTNALIGGPMPMSMPNVMTGTMGMAPLGNTPMMNQSMMGMNMNIGMSAAGMGLTGTMGMGMPNIAMTSGTVQPKQDAFANFANFSK
